Experiment [1] concerns the target Staphylococcus aureus protein A (SpA) in the cell wall of SA bacteria (strain ATCC #25923 and clinical isolate 00X) (Staphylococcus aureus). The experiment is described as follows: flow cytometry: SA clinical isolate 00X pre-incubated with human sera for 15 minutes, then biotinylated MABp1-IgG3 (isotype-matched negative control), then streptavidin-APC (top panel). A general note: A flow cytometer gives signals particle by particle.

Experiment [2] shares this target. The experiment is described as follows: flow cytometry: SA strain ATCC #25923 by the legend (printed on the sheet as 25935) pre-incubated with human sera for 15 minutes, then biotinylated MABp1-IgG3 (isotype-matched negative control), then streptavidin-APC (bottom panel).
The target is the same in experiment [3]. Description: flow cytometry: SA clinical isolate 00X incubated with biotinylated MABp1 (negative control), then streptavidin-APC; mean fluorescence FL4-H from the table beside the histogram (top panel).
The target is the same in experiment [4]. Description: flow cytometry: SA strain ATCC #25923 incubated with biotinylated MABp1 (negative control), then streptavidin-APC; mean fluorescence FL4-H from the table beside the histogram (bottom panel).

For MABp1-IgG3 (antibody), the Mean:FL4-H in experiment [1] was 19.1; in experiment [2] it was 10.3.

As to MABp1-IgG1 (antibody), the Mean:FL4-H in experiment [3] was determined as 29.8; in experiment [4] it was 46.7.

The record behind these values is US20150344548A1.
